Publication PMC12227774

Columns and labels:
[1] = molecular target: YBX1 CSD (human, UniProt P67809 48-159); assay: BLI
[2] = molecular target: YBX3 CSD (human, UniProt P16989 82-174); assay: BLI
Sequence of YBX3 CSD (P16989 82-174): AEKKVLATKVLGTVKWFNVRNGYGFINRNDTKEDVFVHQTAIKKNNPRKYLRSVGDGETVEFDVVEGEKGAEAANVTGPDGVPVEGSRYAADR

Sequence of YBX1 CSD (P67809 48-159): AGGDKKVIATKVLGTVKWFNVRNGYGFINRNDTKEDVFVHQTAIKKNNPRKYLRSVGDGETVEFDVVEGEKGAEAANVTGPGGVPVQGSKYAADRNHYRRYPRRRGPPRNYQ

| Binder | Kd [1] [nM] | Kd [2] [nM] |
| --- | --- | --- |
| GGAGGCCACCUCUCCAAGGGCUUCU (structured_RNA, m5C at position 12 (NSUN6-methylated)) [FURIN-25nt-m5C] | 214 | 45 |
| GGAGGCCACCUCUCCAAGGGCUUCU (structured_RNA, none) [FURIN-25nt] | 346 | 87.5 |
